Results published in article PMC3815138, “Dynamic Interplay between the Periplasmic and Transmembrane Domains of GspL and GspM in the Type II Secretion System” (PLoS ONE, 2013).

Legend:
GST-OutC = target: T1, GST-OutC (Dickeya dadantii, UniProt Q01564 1-272); experiment: pull-down; GST-Out derivatives immobilized on Glutathione Sepharose as baits; His-OutC purified by nickel affinity as prey, incubated 1 h; 1% Triton X-100, 15°C; five washes; immunoblot; settings: both partners purified
T1 construct: OutC (GspC), type II secretion system of Dickeya dadantii; also called full-length OutC carrying a GST-tag; source: E. coli BL21(DE3), pGEX-6P-3 plasmid; immobilized on Glutathione Sepharose

GST-OutL = target: T2, GST-OutL (Dickeya dadantii, UniProt E0SLF6 1-400); experiment: as above; settings: both partners purified
T2 construct: OutL (GspL), type II secretion system of Dickeya dadantii; also called full-length OutL carrying a GST-tag; source: E. coli BL21(DE3), pGEX-6P-3 plasmid; immobilized on Glutathione Sepharose
T2 sequence: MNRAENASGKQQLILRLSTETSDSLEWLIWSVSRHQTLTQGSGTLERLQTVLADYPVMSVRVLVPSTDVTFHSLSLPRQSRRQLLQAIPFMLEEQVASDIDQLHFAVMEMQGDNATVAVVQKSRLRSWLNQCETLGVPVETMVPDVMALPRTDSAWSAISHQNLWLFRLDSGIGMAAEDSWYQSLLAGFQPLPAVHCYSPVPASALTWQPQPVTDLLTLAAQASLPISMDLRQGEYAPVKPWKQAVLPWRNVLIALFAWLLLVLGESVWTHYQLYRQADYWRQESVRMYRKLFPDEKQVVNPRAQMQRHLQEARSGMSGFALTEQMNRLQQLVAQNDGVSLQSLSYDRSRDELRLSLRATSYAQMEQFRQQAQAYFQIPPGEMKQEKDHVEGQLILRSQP

B1: His-OutC (natural protein)
chain: not shown
notes: OutC (GspC), bitopic inner membrane component of the type II secretion system of Dickeya dadantii; also called GspC; full-length OutC; source: E. coli BL21(DE3), pET20b(+) plasmid
binding result (GST-OutC): binds
binding result (GST-OutL): binds
